This is an account of results in patent US20240010704A1, “CHIMERIC SENSOR PROTEIN AND METHODS OF USE THEREOF” (Universitaet Leipzig, priority 2020, published 2024).

The target in one test is T1, γ-secretase (Drosophila melanogaster, UniProt O02194).
T1 construct: endogenous in cells; host or cells: Drosophila S2 cells
The experiment in a line: Luciferase reporter assay in S2 cells, pharmacological inhibition of γ-secretase activity by DAPT. To be noted: for reporter activity without DAPT vs. with 10 μM DAPT: FIG. 8C. It is filed as cell-based. The procedure: (§1) For transfection, mini- or midi-prepped plasmid DNA (Qiagen) for each construct was adjusted to a stock concentration 100 ng/μl using a nanophotometer (Implen). For individual transfections a total amount of 200 ng DNA per 96-well plate well was used and always contained 30 ng of lexAop>FLuc2 (test construct reporter) and Act5.1Cp>RLuc (transfection control reporter), respectively. Test constructs (X-NRS-LexA) and TEV protease plasmids were added at 1:1 ratio (equimolarly adjusted to lexAop>FLuc2) to the DNA mixes; each DNA mix was supplemented with empty pBSK-SK+ vector (Stratagene) to 200 ng. S2 cells were cultured in Schneider's Drosophila medium (Invitrogen, Cat. no. 21720-024). Cultures were maintained in an air incubator at 25° C. S2 cells were split and plated into individual wells of a 96-well plate at a concentration of 5×10^5/well on day 0. 24 hours after plating (day 1), cells were transfected with Lipofectamine 2000 (Invitrogen, #11668019) with the suitable 1:1 plasmid/reagent mixture according to manufacturer's instructions and incubated for 48 hours. When induction of the metallothionein-promoter was required, CuSO4 stock medium was added in each well of the experiment to a final concentration of 0.5 mM CuSO4 24 hrs after transfection (day 2).
Cells were lysed on day 3 (48 hrs after transfection) and luciferase measurements with the Dual-Glo luciferase assay system (Promega) were performed according to the manufacturer's protocol. In brief, the supernatant was removed from each well by aspiration and cells were incubated with 200 μl passive lysis buffer on a shaker at room temperature for 30 min. Lysates were analyzed in 96-well plates with a Victor2 plate reader luminometer (PerkinElmer). Firefly and Renilla luciferase luminescence signals were collected for 10 s. Relative luciferase activities were calculated for each sample individually as principally described in Potter et al. (ref. 23) according to the following formula:
(F/R)Empty=(Σi=1^nFEmpty^i/REmpty^i)/n,
where n=number of control samples; F=Firefly luciferase luminescence signal; R=Renilla luciferase luminescence signal; Empty=lexAop>FLuc2+Ac5.1p>RLuc+BSK-SK+. Each condition was executed at least in triplicate, the average and SEM were determined for each condition, and statistical significance was evaluated using Student's t test. Plasmids used for transfection in S2 cells were: N^ECN-LexA, N^EGF-LexA, ChiN-Test, pChiN1, pChiN2, pChiN3, lexAop-FLuc2, Ac5.1-RLuc, secTEVp, intraTEVp, pBSK-SK+.

For test [1], the system named is lexAop-FLuc reporter in Drosophila Schneider 2 (S2) cells. The experiment in a line: Luciferase (lexAop-FLuc) reporter assay of NRS sensor constructs in S2 cells. It is filed as cell-based. To be noted: FIG. 9; for reporter activity in luciferase assays: S2 cells.
Description: In order to conceptually establish the approach to fuse heterologous ECRs to the Notch^ITS to suppress its proteolytic activation, a sensor protein containing 4 immunoglobulin (Ig) domains of the human CD4 receptor fused to the Notch^ITS was engineered^28 (FIG. 7A).
As a positive control a constitutively active N^ECN-LexA receptor^34 with a constantly exposed S2 cleavage site was included (FIG. 7A,B).
Next, the extracellular CD4 repeats of the sensor protein were replaced with the ECR of an aGPCR, the Latrophilin/ADGRL-homolog CIRL/CG8639 (calcium independent receptor of α-latrotoxin) to enable the NRS to detect the physical dissociation of the NTF-CTF complex within the GAIN domain when appended to the Notch^ITS. Thus, the entire ECR of CIRL (including the GAIN domain, GPS, tethered agonist segment and predicted linker to the 7TM domain) was N-terminally fused to the NRS core (CIRL-NRS-LexA; FIG. 9). […] In order to distinguish between these two possibilities, we mutated the GPS of the sensor at the −2 position of its catalytic triad and replaced the conserved Histidin by an Alanine (FIG. 9) to block GAIN domain self-cleavage and eventual NTF release. […] This set of experiments establishes that the CIRL-NRS-LexA NRS can be used for monitoring the integrity of the NTF-CTF heterodimer clamped by the GAIN domain of CIRL.
as §1
Cells were lysed on day 3 (48 hrs after transfection) and luciferase measurements with the Dual-Glo luciferase assay system (Promega) were performed according to the manufacturer's protocol. […] Lysates were analyzed in 96-well plates with a Victor2 plate reader luminometer (PerkinElmer). Firefly and Renilla luciferase luminescence signals were collected for 10 s. Relative luciferase activities were calculated for each sample individually as principally described in Potter et al. (ref. 23) according to the following formula: […]
where n=number of control samples; F=Firefly luciferase luminescence signal; R=Renilla luciferase luminescence signal; Empty=lexAop>FLuc2+Ac5.1p>RLuc+BSK-SK+. Each condition was executed at least in triplicate, the average and SEM were determined for each condition, and statistical significance was evaluated using Student's t test. […]
A general note: In a reporter assay the amount or activity of a reporter protein is the signal.

In a further test the test system is Drosophila melanogaster. Description: In vivo expression analysis of genomically integrated cirl-NRS sensors (transcriptionally activated mCherry reporter). The note with it: adult animals; for sensor activity (lexAop-mCherry reporter expression): FIG. 11. From the text:
To test the utility of the NRS sensor principle in vivo, an existing genomic engineering platform^13,35 was used to encode NRS sensors in alleles of the adhesion GPCR cirl/CG8639 of Drosophila melanogaster. This places CIRL-NRS expression under the endogenous regulatory control of the cirl locus (FIG. 10A). The NRS design was adapted to generate minigenes for cirl-NRS-LexA, cirl^H>A-NRS-LexA and cirl-NRS^S3-LexA by fusing the genomic fragment encoding the CIRL-ECR to the NRS-LexA cDNA (FIG. 10A,B). The resulting transgenes were inserted in the cirl gene using phiC31-assisted transformation generating fly stocks expressing the different sensors variants from the cirl locus.
Next, the functionality of CIRL-NRS was further studied in anatomical expression analyses.
To control for potential misexpression inherent to the LexA transcriptional reporter, additional cirl-NRS transgenes alternatively terminating in Ga/4 or QF2 transcription factor cassettes were generated an analysed.

Residue numbers refer to the chain shown, from its start.

T1 sequence (O02194 whole entry): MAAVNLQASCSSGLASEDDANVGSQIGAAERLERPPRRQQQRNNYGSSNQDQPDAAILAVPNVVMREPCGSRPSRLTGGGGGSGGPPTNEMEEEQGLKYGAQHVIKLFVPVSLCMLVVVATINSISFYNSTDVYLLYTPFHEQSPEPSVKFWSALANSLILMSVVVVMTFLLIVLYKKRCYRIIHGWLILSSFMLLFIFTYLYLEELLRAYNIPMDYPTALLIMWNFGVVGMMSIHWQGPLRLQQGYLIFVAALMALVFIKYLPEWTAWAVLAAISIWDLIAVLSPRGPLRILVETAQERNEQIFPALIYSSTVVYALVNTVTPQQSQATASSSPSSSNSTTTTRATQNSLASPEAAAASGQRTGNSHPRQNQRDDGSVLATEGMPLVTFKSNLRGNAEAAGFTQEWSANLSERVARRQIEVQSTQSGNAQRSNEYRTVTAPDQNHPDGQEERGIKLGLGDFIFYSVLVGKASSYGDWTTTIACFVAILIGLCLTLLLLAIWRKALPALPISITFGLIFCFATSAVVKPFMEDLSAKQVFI
T1 sequence (Q9VC27 23-695 partner): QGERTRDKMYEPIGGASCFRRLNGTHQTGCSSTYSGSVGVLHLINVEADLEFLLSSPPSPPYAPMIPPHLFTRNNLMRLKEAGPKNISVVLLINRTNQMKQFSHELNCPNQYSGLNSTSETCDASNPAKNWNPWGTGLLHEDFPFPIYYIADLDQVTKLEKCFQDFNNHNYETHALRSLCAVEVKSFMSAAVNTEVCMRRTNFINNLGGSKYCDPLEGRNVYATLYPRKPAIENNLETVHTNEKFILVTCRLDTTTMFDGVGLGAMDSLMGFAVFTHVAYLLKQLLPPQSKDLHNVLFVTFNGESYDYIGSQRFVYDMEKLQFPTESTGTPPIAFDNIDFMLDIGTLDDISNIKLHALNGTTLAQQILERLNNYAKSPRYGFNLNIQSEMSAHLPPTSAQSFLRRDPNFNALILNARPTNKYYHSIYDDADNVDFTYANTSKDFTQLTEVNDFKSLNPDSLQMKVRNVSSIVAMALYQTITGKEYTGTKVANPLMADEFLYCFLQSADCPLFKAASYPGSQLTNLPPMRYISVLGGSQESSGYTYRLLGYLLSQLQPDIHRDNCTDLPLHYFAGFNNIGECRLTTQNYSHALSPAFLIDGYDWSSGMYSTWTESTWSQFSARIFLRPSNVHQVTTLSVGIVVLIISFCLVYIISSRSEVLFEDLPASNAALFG
T1 sequence (Q9VQG2 whole entry partner): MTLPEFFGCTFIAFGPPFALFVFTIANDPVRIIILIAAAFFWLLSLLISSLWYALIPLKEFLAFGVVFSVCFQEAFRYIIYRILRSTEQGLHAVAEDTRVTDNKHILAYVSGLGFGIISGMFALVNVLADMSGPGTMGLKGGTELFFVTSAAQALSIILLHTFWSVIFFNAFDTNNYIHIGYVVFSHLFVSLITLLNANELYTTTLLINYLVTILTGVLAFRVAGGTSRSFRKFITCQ
T1 sequence (Q86BE9 whole entry partner): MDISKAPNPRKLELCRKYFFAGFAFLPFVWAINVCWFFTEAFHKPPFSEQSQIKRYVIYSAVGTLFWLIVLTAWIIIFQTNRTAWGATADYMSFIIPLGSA

`C[C@H](NC(=O)Cc1cc(F)cc(F)c1)C(=O)N[C@H](C(=O)OC(C)(C)C)c1ccccc1` [DAPT]: on γ-secretase (10 μM DAPT, S2 cells), the “effect on reporter activity” value is “abolished reporter activity”. In addition, the “reporter activity without DAPT vs. with 10 μM DAPT” value at γ-secretase (CD4-6TEVs-NRS-LexA construct) was 3.6 ×; on γ-secretase (CD4-6TEVs-NRS-LexA+intraTEVp), 7.0 ×; at γ-secretase (CD4-6TEVs-NRS-LexA+secTEVp), 23.4 ×; at γ-secretase (Control) it was 1.1 ×; on γ-secretase (N^ECN-LexA construct), 43.7 ×; at γ-secretase (N^EGF-LexA construct), 5.8 ×.

B1: CIRL-NRS-LexA: entire ECR of CIRL N-terminally fused to the NRS core; full-length NTF release sensor for dmCIRL (protein)
chain: MKLCILLAVVAFVGLSLGETGFPKSLSVLNSRCAHKQSCGVLAATSMFGDPCPGTHKYLEAHYQCISAAQTSTTTNRPSPPPWVLSNGPPIFGNGSGLIHPPGVGAGAPPPPRLPTLPGVVGISGNPGLFNVPPQHTAVTHSTPSSSTTAVGGGRLKGGATSTTTTKHPAGRHDGLPPPPQLHHHHNHHGEDTASPTKPSSKLPAGGNATSPSNTRILTGVGGSGTDDGTLLTTKSSPNRPPGTAASGSVVPGNGSVVRTINNINLNAAGMSGGDDESKLFCGPTHARNLYWNMTRVGDVNVQPCPGGAAGIAKWRCVLMKRIPDSGYDEYDDDISSTTPAPSGGDCLHNSSSCEPPVSMAHKVNQRLRNFEPTWHPATPDLTQCRSLWLNNLEMRVNQRDSSLISIANDMSEVTSSKTLYGGDMLVTTKIIQTVSEKMMHDKETFPDQRQREAMIMELLHCVVKTGSNLLDESQLSSWLDLNPEDQMRVATSLLTGLEYNAFLLADTIIRERSVVQKVKNILLSVRVLETKTIQSSVVFPDSDQWPLSSDRIELPRAALIDNSEGGLVRIVFAAFDRLESILKPSYDHFDLKSSRSYAILSNDSDVNAGEIQQRLRILNSKVISASLGKGRHIQLSQPITLTLKHLKTENVTNPTCVFWNYIDHAWSANGCSLESTNRTHSVCSCNHLTNFAILMDVVDEHQHSLFTMFDGNMRPRIDTAAKHQLRNDFQIHSVRGIKNPGDEDNGEPPANVKYVITGIILVIIALAFFGMVLSTQRKRSGPPKLKALTARQQEVFDLIRDHISQTGMPPTRAEIAQRLGFRSPNAAEEHLKALARKGVIEIVSGASRGIRLLQEEEEGLPLVGRVAAGEPLLAQQHIEGHYQVDPSLFKPNADFLLRVSGMSMKDIGIMDGDLLAVHKTQDVRNGQVVVARIDDEVTVKRLKKQGNKVELLPENSEFKPIVVDLRQQSFTIEGLAVGVIRNGDWLEFPGIRRPAGIPGDLAPPTDVSLGDELHLDGEDVAMAHADALDDFDLDMLGDGDSPGPGFTPHDSAPYGALDMADFEFEQMFTDALGIDEYGGASRYLDPAFLYKVVSSATMDYKDHDGDYKDHDIDYKDDDDKHRST
modifications: Full-length NTF release sensor for dmCIRL used in Example 2
For B1, the “reporter activity in luciferase assays” value in test [1] is recorded as “high activity”. Further, the “luciferase reporter activity, fold difference” value in test [1] (vs. Cirl-NRS^S3-LexA) is given as 23.7 ×; in test [1] (vs. Cirl^H>A-NRS-LexA), 148.8 ×. In addition, the “sensor activity (lexAop-mCherry reporter expression)” value (“sensor activity” below) with Drosophila melanogaster is “strong expression in the eye, proboscis and leg neurons”. The “expression pattern with matching reporter transgenes” value with Drosophila melanogaster (FIG. 12) was “strong activation”.

B2: CIRL-NRS^S3-LexA: NTF release sensor for dmCIRL, S3 cleavage site mutated (disabled γ-secretase recognition) (protein)
chain: B1 chain with V773K
modifications: Full-length NTF release sensor for dmCIRL (S3 cleavage site mutated)
For B2, in test [1], the “reporter activity in luciferase assays” value is on record as “no reporter activity”. Further, the “sensor activity” value with Drosophila melanogaster is reported as “completely abrogated”.

B3: CIRL^H>A-NRS-LexA: NTF release sensor for dmCIRL, GPS cleavage site mutated (His to Ala at −2) (protein)
chain: B1 chain with H688A
modifications: Full-length NTF release sensor for dmCIRL (GPS cleavage site mutated)
Take B3: in test [1], the “reporter activity in luciferase assays” value is on record as “no reporter activity”. Besides, the “sensor activity” value with Drosophila melanogaster is on record as “abrogated NRS activation”.
